test: soluble on expression in E. coli; label from the status in PepcDB or PDB records

Row | Sequence | soluble on expression in E. coli
1 | MAVIRIKKPRGPGEKDQPLEGEPKLKRIRIKTKVTDEDIKPKPKLKINLKKKKESADGKEKKNSLKLKLNLKKNEEPVKKIHKAPKLRLKPIRIPGEAYDSEASDIEDDPLIESGVILRILPDIQLEFVKNSLESGDYSGISIKWKNERHAVVTINDVMYGAILVDLPTVIEVNKSVDRKNLLKTFDVSQMLLCIRPIQEEEEVYALEAPDTEDLVVKHFEGIEDEIWENKETFLKGYNGAPLSDMEAKHLKEIALKGYDYKHGISPPLYNVRNRRFRRKMDPNEIDYVEKVVDMLLKQDKQAEEVSYDLVDKSELQARQERVSSWENFKEEPGEPLSRPALKKEEIHTIASAVGKQGAEEEGEEGMEEEEEEDLDLGAAFESEEEGSGAEGDKEQQQEEVGDEVDQDTGGEDDDDDDDGDIEAAGGESESDDEKDENRQHTELLADELNELETTLAHTKHKLSKATNPLLKSRFIDSIKKLEKEAELKRKQLQQTEDSVQKQHQHRSDAETANNVEEEEEEEEEEEEEDEVDEDEEDDEENDEDEDNVHEREHIQENKVVRELDEAPAEETLDQNDLDMMMLFGAEGDE | not soluble
2 | KEVRLSKHFYEDKEIEEIKHKDLAETPFQQQVIDYLYRHIAAQKEKVVEQQLQIKNHEQTITEFVHDIKTPVTAMKLLIDQENDDQRKRALLFEWSRINEMLDKQLYLTRLETHHRDMYFDYISLKRMVIDEIQVTRHISQAKGIGFELDFKDEQKVYTDVKWCRMMIRQVLSNSLKYSDNSTINLSGYNIEGHVVLKIKDYGRGISKRDLPRIFDRGFTSTTDRNDTASSGMGLYLVQSVKEQLGIEVKVDSIVGKGTTFYFIFPQQNEIIERMSKVTRLSF | not soluble
3 | HMGKIYAAMMIMEYYRQSKAKK | soluble
4 | MSIVSISYNQEEYIREALDGFAAQRTEFPVEVIIADDASTDATPRIIGEYAARYPQLFRPILRQTNIGVHANFKDVLSAARGEYLALCEGDDYWTDPLKLSKQVKYLDRHPETTVCFHPVRVIYEDGAKDSEFPPLSWRRDLSVDALLARNFIQTNSVVYRRQPSYDDIPANVMPIDWYLHVRHAVGGEIAMLPETMAVYRRHAHGIWHSAYTDRRKFWETRGHGMAATLEAMLDLVHGHREREAIVGEVSAWVLREIGKTPGRQGRALLLKSIADHPRMTMLSLQHRWAQTPWRRFKRRLSTELSSLAALAYATRRRALEGRDGGYRETTSPPTGRGRNVRGSHA | not soluble
5 | MTTARDIMNAGVTCVGEHETLTAAAQYMREHDIGALPICGDDDRLHGMLTDRDIVIKGLAAGLDPNTATAGELARDSIYYVDANASIQEMLNVMEEHQVRRVPVISEHRLVGIVTEADIARHLPEHAIVQFVKAICSPMALAS | soluble
6 | GPGSMLGSPLFPVAMDSFFDEDECERLGVWEDPRCLRAAEYTQCVATIRALIEQYGVAAAPLHTVKDAAQFLRFEASSAVSHPPMRESAVSYTVKSYGEASKKCVSEANNIVLSSLCMNDACVAGNAADGTDVALEKVFIVCEGFLIFGYPELCNMFDFFVFVHSDNETACLRRFFRGSRRKKRKPQGGNCDRILRMRTSRVNAELWSSEGAAANKTLSPSFSSVLPHLKYMPPQPSSPNDYQGFWLQSEYKELPPPMPFGMSGLKAPPYDWLEVKDLQYVKQMLHQWANASCVDDVEGVLGRYFEFRYWFYYEVLFYHYQLRGISEENVTTACQAKGTTKTSPSQSVLHIKNDASVSCVMLDSQLLALAQQVSGDLINGEGEVRLLLGWN | not soluble
7 | GPGSMNCVQQGKVNVIADNLIPDGKMTEMIIVMKSSVSARANGECLPCDAAQLCEDLTEDIIPYVDNHYRTDADRDNRAIAGLYMGSIQASRLCITRHDLFAYPGMFSGFLSSNWNGIGTDSDHIEALRCDPAAFQAAMKVLFRCIGDDNTYRAAFEADNALLAELGAACERRIYAGSHSWQVWRQAAADFPPMLFKDLSFFPRH | not soluble
8 | MSDSPDSPPDAEPSIAARIAAVLPSLTPIHRRMGEYVLANPFRAATMRIDELANAVDASIATANRFARALGFDGYPALRAALVRGFEATLAPVERLRSAQEHEAGARGGELIDASFEQAL | not soluble
9 | SSSSSSVPAYLGDEDLTQETRALISSLPKEKGWLVSEIYEFQGLWHTQAILQGILICQKRFEAKDSDIILVTNPKSGTTWLKALVFALLNRHKFPVSSSGNHPLLVTNPHLLVPFLEGVYYESPDFDFSSLPSPRLMNTHISHLSLPESVKSSSCKIVYCCRNPKDMFVSLWHFGKKLAPEETADYPIEKAVEAFCEGKFIGGPFWDHILEYWYASRENPNKVLFVTYEELKKQTEVEMKRIAEFLECGFIEEEEVREIVKLCSFESLSNLEVNKEGKLPNGIETKTFFRKGEIGGWRDTLSESLAEEIDRTIEEKFKGSGLKFSS | soluble
10 | MAGFPGKEAGPPGGWRKCQEDESPENERHENFYAEIDDFAPSVLTPTGSDSGAGEEDDDGLYQVPTHWPPLMAPTGLSGERVPCRTQAAVTSNTGNSPGSRHTSCPFTLPRGAQPPAPAHQKPTAPTPKPRSRECGPSKTPDPFSWFRKTSCTEGGADSTSRSFMYQKGFEEGLAGLGLDDKSDCESEDESNFRRPSSHSALKQKNGGKGKPSGLFEHLAAHGREFSKLSKHAAQLKRLSGSVMNVLNLDDAQDTRQAKAQRKESMRVPIVTHLTNHVPVIKPACSLFLEGAPGVGKTTMLNHLKAVFGDLTIVVPEPMRYWTHVYENAIKAMHKNVTRARHGREDTSAEVLACQMKFTTPFRVLASRKRSLLVTESGARSVAPLDCWILHDRHLLSASVVFPLMLLRSQLLSYSDFIQVLATFTADPGDTIVWMKLNVEENMRRLKKRGRKHESGLDAGYLKSVNDAYHAVYCAWLLTQYFAPEDIVKVCAGLTTITTVCHQSHTPIIRSGVAEKLYKNSIFSVLKEVIQPFRADAVLLEVCLAFTRTLAYLQFVLVDLSEFQDDLPGCWTEIYMQALKNPAIRSQFFDWAGLSKVISDFERGNRD | not soluble
11 | EDLPTARVGVDYTSDSQVGGTLDLGRRFGDNNQFGARVNLVHREGEGAIDNDKRRTTLASLGLDYRGDRFRSSLDFGYQKKTFHGGTMGVNISGVDFIPALPDNSKNYSQKWGYSDIESEFGMAKAEYDLTDSWTVYSALGGQHSHEIGTYSAPKLLNKNGDATVGRLDTNRIIDAISGMGGVRGDFNTGAISHKVNLGYAAQVHTDATAWRMSARNPTTNIYDNHDVAMPDNAYFGGNYHDPLITSRSRTQGWLLSDTLGFFNDKVLFTAAARHQKVVVRNYSNATGLEDTSSRYTQSRWMPTFGLVYKPWEQLSLYANHTEALQPGSVAPTTAANAGQSTGIAHSKQDEVGVKIDYGTIGGSLALFEIKKPNAISDTAGNYGLDGEQRNRGVEMNVFGEPMLGLRLNASTVWLDAKQTKTAEGATDGKDAIGVANFYAVLGAEYDIKPVEGLTATARVNHSGSQYADAANTKKLDSYTTLDLGLRYRMRLNADQNEMIWRVGVTNVTNEKYWSGIDDTGTYLFEGDPRTVRVSMSYDF | not soluble
12 | TLSRDDAAQVAKVLSEALPYIRRFVGKTLVIKYGGNAMESEELKAGFARDVVLMKAVGINPVVVHGGGPQIGDLLKRLSIESHFIDGMRVTDAATMDVVEMVLGGQVNKDIVNLINRHGGSAIGLTGKDAELIRAKKLTVTRQTPEMTKPEIIDIGHVGEVTGVNVGLLNMLVKGDFIPVIAPIGVGSNGESYNINADLVAGKVAEALKAEKLMLLTNIAGLMDKQGQVLTGLSTEQVNELIADGTIYGGMLPKIRCALEAVQGGVTSAHIIDGRVPNAVLLEIFTDSGVGTLISNRKRH | soluble
13 | MGSDKIHHHHHHNTEQQLDSEVSEPTKTMRSQQHSDGAAAITHLTPLDLPLDSQGLTDEDSQQINSLLNQLHESAMSADWDTYFDLYHPDAAFIGTDATERWNMVHFRRYASPTQGWRYDLQARHLLQIEDVVVFDEQLYSPEYGISRGTGALVNTTKGWKIAQYHLSFPIPNAKAKRITTLIKQ | not soluble
14 | MSLSGKKVIYFIPIVDTGAYWSPMKKAAEDEAKALGYDLVVKTSPPNETQKNEKHIGFLDEAIKNKAAGIAIAPMDPDMFDKKVKEANDKGIPVVTFDADVKTKENRTSYIGTDNKLAGEQLGENGAKALKEKGITKGKIAMAAVNLTQTTMTYRQDGIKSGFEKVMGADAKNFEWLEPIQDNDQSAESKRQLEGQITSNSDMVAVFSLGSEGPDTGVMEAIKSQGKSGSIYHFGFDYTPTWENGVSSNLISGIVDQDSYAIGKTIIDTLDKKIKGEKVDDVYPVPVKWVTPDKIVEYGKEKQKQFTTELKGIITITTDPNSSSVDKLAAALEHHHHHH | soluble
15 | MPTYPPSLLQSLLQYIPERELAWDCGAGSGQLTHMLASYFDQVVGTDISQTQLSHAEYYDNISYQLQPAENTTFPDHCFDLITVAQAIHWFDFEAFYAEVRRTIKPSGILAVVGYGLIHVDDLEINAKVQHLYHQTLNGFWDAERHYVDELYQTIPFPFDEIEMPAFQIEAQWTLQQLLQYLNTWSAVQHYILEKNLDPVQQLLSKGLEHHHHHH | not soluble
16 | MSDWTYSEGALDEAHWPQHYPACGGQRQSPINLQRTKVRYNPSLKGLNMTGYETQAGEFPMVNNGHTVQISLPSTMRMTVADGTVYIAQQMHFHWGGASSEISGSEHTVDGIRHVIEIHIVHYNSKYKSYDIAQDAPDGLAVLAAFVEVKNYPENTYYSNFISHLANIKYPGQRTTLTGLDVQDMLPRNLQHYYTYHGSLTTPPCTENVHWFVLADFVKLSRTQVWKLENSLLDHRNKTIHNDYRRTQPLNHRVVESNFPNQEYTLGSEFQAENLYFQ | soluble
17 | MGSDKIHHHHHHMDLVEEILRLKEERNAIILAHNYQLPEVQDIADFIGDSLELARRATRVDADVIVFAGVDFMAETAKILNPDKVVLIPSREATCAMANMLKVEHILEAKRKYPNAPVVLYVNSTAEAKAYADVTVTSANAVEVVKKLDSDVVIFGPDKNLAHYVAKMTGKKIIPVPSKGHCYVHQKFTLDDVERAKKLHPNAKLMIHPECIPEVQEKADIIASTGGMIKRACEWDEWVVFTEREMVYRLRKLYPQKKFYPAREDAFCIGMKAITLKNIYESLKDMKYKVEVPEEIARKARKAIERMLEMSK | not soluble
18 | MSLKYVIGIDLGTSAVKTILVNQNGKVCAETSKRYPLIQEKAGYSEQNPEDWVQQTIEALAELVSISNVQAKDIDGISYSGQMHGLVLLDQDRQVLRNAILWNDTRTTPQCIRMTEKFGDHLLDITKNRVLEGFTLPKMLWVKEHEPELFKKTAVFLLPKDYVRFRMTGVIHTEYSDAAGTLLLHITRKEWSNDICNQIGISADICPPLVESHDCVGSLLPHVAAKTGLLEKTKVYAGGADNACGAIGAGILSSGKTLCSIGTSGVILSYEEEKERDFKGKVHFFNHGKKDSFYTMGVTLAAGYSLDWFKRTFAPNESFEQLLQGVEAIPIGANGLLYTPYLVGERTPHADSSIRGSLIGMDGAHNRKHFLRAIMEGITFSLHESIELFREAGKSVHTVVSIGGGAKNDTWLQMQADIFNTRVIKLENEQGPAMGAAMLAAFGSGWFESLEECAEQFIREAAAFYPKAQNVQKYKTLFDLYKNIYTHTKDLNTALKSFRKNEGHHHHHH | soluble
19 | MSLALRSLIADARRLVVKVGSSLVTDDGRGLDQAAIARWAAQIAALRAAGKEVVLVSSGAIAEGMQRLGWTRRPKEIHELQAAAAVGQMGLAQVYESEFARHGIRTAQVLLTHGDLADRERYLNARSTLLTLLGLGVVPIINENDTVVTDEIKFGDNDTLGALVTNLIEGDALIILTDQRGLYTADPRKHPDARFVDEAQAGAPELEAMAGGAGSSIGKGGMLTKIVAAKRAAKSGAHTVIASGREADVLARLAGGEAIGTQLRAPTGRMAARKQWMIDHLQLRGRVVLDAGAVDKLTAGGKSLLPIGVTEVQGEFARGEVISCVDTAGREVARGLTNYSAAEARLIARKASSEIEAVLGYVSAAELVHRDNLVLLEGHHHHHH | soluble

From the DeepSol protein solubility set
